Tests used:
Rvb2(E166K) = Rvb2(E166K) (Saccharomyces cerevisiae, UniProt Q12464 1-471, E166K); experiment: SEC
Rvb2 = Rvb2 (Saccharomyces cerevisiae, UniProt Q12464 1-471); experiment: SEC
Rvb2, sequence (Q12464 whole entry): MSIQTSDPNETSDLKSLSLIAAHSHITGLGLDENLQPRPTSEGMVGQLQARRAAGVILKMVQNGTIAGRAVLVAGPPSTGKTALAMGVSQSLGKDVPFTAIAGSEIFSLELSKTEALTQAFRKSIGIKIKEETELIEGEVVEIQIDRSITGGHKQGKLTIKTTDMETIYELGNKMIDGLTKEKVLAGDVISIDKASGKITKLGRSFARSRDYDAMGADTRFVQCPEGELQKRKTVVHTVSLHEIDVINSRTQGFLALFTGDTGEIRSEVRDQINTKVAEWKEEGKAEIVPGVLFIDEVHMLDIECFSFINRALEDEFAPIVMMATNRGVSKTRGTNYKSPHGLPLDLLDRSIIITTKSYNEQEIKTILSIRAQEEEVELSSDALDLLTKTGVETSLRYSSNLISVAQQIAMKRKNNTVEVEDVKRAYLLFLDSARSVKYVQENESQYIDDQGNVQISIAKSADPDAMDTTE

Rvb2(E166K), sequence (Q12464 whole entry E166K): as the sequence (Q12464 whole entry) above, with E166K counted along it

| Binder | binding result (Rvb2(E166K)) | binding result (Rvb2) |
| --- | --- | --- |
| Rvb1 (natural protein, Saccharomyces cerevisiae, UniProt Q03940 1-463, looked up) MVAISEVKENPGVNSSNSGAVTRTAAHTHIKGLGLDESGVAKRVEGGFVGQIEAREACGVIVDLIKAKKMSGRAILLAGGPSTGKTALALAISQELGPKVPFCPLVGSELYSVEVKKTETLMENFRRAIGLRIKETKEVYEGEVTELTPEDAENPLGGYGKTISHVIVGLKSAKGTKTLRLDPTIYESIQREKVSIGDVIYIEANTGAVKRVGRSDAYATEFDLETEEYVPLPKGEVHKKKEIVQDVTLHDLDVANARPQGGQDVISMMGQLLKPKKTEITEKLRQEVNKVVAKYIDQGVAELIPGVLFIDEVNMLDIEIFTYLNKALESNIAPVVVLASNRGMTTVRGTEDVISPHGVPPDLIDRLLIVRTLPYDKDEIRTIIERRATVERLQVESSALDLLATMGTETSLRYALQLLAPCGILAQTSNRKEIVVNDVNEAKLLFLDAKRSTKILETSANYL | binds | – |
| Rvb1(E150K) (natural protein, Saccharomyces cerevisiae, UniProt Q03940 1-463, looked up) MVAISEVKENPGVNSSNSGAVTRTAAHTHIKGLGLDESGVAKRVEGGFVGQIEAREACGVIVDLIKAKKMSGRAILLAGGPSTGKTALALAISQELGPKVPFCPLVGSELYSVEVKKTETLMENFRRAIGLRIKETKEVYEGEVTELTPKDAENPLGGYGKTISHVIVGLKSAKGTKTLRLDPTIYESIQREKVSIGDVIYIEANTGAVKRVGRSDAYATEFDLETEEYVPLPKGEVHKKKEIVQDVTLHDLDVANARPQGGQDVISMMGQLLKPKKTEITEKLRQEVNKVVAKYIDQGVAELIPGVLFIDEVNMLDIEIFTYLNKALESNIAPVVVLASNRGMTTVRGTEDVISPHGVPPDLIDRLLIVRTLPYDKDEIRTIIERRATVERLQVESSALDLLATMGTETSLRYALQLLAPCGILAQTSNRKEIVVNDVNEAKLLFLDAKRSTKILETSANYL | – | binds |
| Rvb1(K161E) (natural protein, Saccharomyces cerevisiae, UniProt Q03940 1-463, looked up) MVAISEVKENPGVNSSNSGAVTRTAAHTHIKGLGLDESGVAKRVEGGFVGQIEAREACGVIVDLIKAKKMSGRAILLAGGPSTGKTALALAISQELGPKVPFCPLVGSELYSVEVKKTETLMENFRRAIGLRIKETKEVYEGEVTELTPEDAENPLGGYGETISHVIVGLKSAKGTKTLRLDPTIYESIQREKVSIGDVIYIEANTGAVKRVGRSDAYATEFDLETEEYVPLPKGEVHKKKEIVQDVTLHDLDVANARPQGGQDVISMMGQLLKPKKTEITEKLRQEVNKVVAKYIDQGVAELIPGVLFIDEVNMLDIEIFTYLNKALESNIAPVVVLASNRGMTTVRGTEDVISPHGVPPDLIDRLLIVRTLPYDKDEIRTIIERRATVERLQVESSALDLLATMGTETSLRYALQLLAPCGILAQTSNRKEIVVNDVNEAKLLFLDAKRSTKILETSANYL | – | binds |
| Rvb1(E146R) (natural protein, Saccharomyces cerevisiae, UniProt Q03940 1-463, looked up) MVAISEVKENPGVNSSNSGAVTRTAAHTHIKGLGLDESGVAKRVEGGFVGQIEAREACGVIVDLIKAKKMSGRAILLAGGPSTGKTALALAISQELGPKVPFCPLVGSELYSVEVKKTETLMENFRRAIGLRIKETKEVYEGEVTRLTPEDAENPLGGYGKTISHVIVGLKSAKGTKTLRLDPTIYESIQREKVSIGDVIYIEANTGAVKRVGRSDAYATEFDLETEEYVPLPKGEVHKKKEIVQDVTLHDLDVANARPQGGQDVISMMGQLLKPKKTEITEKLRQEVNKVVAKYIDQGVAELIPGVLFIDEVNMLDIEIFTYLNKALESNIAPVVVLASNRGMTTVRGTEDVISPHGVPPDLIDRLLIVRTLPYDKDEIRTIIERRATVERLQVESSALDLLATMGTETSLRYALQLLAPCGILAQTSNRKEIVVNDVNEAKLLFLDAKRSTKILETSANYL | – | binds |
| Rvb1(R180E) (natural protein, Saccharomyces cerevisiae, UniProt Q03940 1-463, looked up) MVAISEVKENPGVNSSNSGAVTRTAAHTHIKGLGLDESGVAKRVEGGFVGQIEAREACGVIVDLIKAKKMSGRAILLAGGPSTGKTALALAISQELGPKVPFCPLVGSELYSVEVKKTETLMENFRRAIGLRIKETKEVYEGEVTELTPEDAENPLGGYGKTISHVIVGLKSAKGTKTLELDPTIYESIQREKVSIGDVIYIEANTGAVKRVGRSDAYATEFDLETEEYVPLPKGEVHKKKEIVQDVTLHDLDVANARPQGGQDVISMMGQLLKPKKTEITEKLRQEVNKVVAKYIDQGVAELIPGVLFIDEVNMLDIEIFTYLNKALESNIAPVVVLASNRGMTTVRGTEDVISPHGVPPDLIDRLLIVRTLPYDKDEIRTIIERRATVERLQVESSALDLLATMGTETSLRYALQLLAPCGILAQTSNRKEIVVNDVNEAKLLFLDAKRSTKILETSANYL | – | binds |

Source: publication PMC13429012 (Structure (London, England : 1993), 2016)
